From US20170101480A1

Molecular target: ErbB3 (human) (UniProt P21860)
Experiment: cell-based or functional assay

inhibition of HRG-induced cell growth (CTG assay), OVCAR8-GFP cells: 49%
inhibition of HRG-induced cell growth (CTG assay), OVCAR-8-JMaCYT1 cells (ErbB4 overexpressing): < 20%
inhibition of HRG-induced cell growth (CTG assay), OVCAR-8-JMaCYT2 cells (ErbB4 overexpressing): < 20%
inhibition of HRG-induced cell growth (CTG assay), OVCAR-8 high ErbB4 expression clone #5: 8%
inhibition of HRG-induced cell growth (CTG assay), OVCAR-8 low ErbB4 expression clone #4: 45%
inhibition of HRG-induced cell growth (CTG assay), OVCAR-8 medium ErbB4 expression clone #9: 25%
inhibition of HRG-induced cell proliferation (CTG assay), OVCAR-8 GFP-expressing control cells, 1.25 uM seribantumab: 40.8%
inhibition of HRG-induced cell proliferation (CTG assay), OVCAR-8 parental cells, 1.25 uM seribantumab: 53.7%
inhibition of HRG-stimulated cell proliferation (CTG assay), A549 cells, 1.25 uM seribantumab, 10 nM HRG: 70%
inhibition of HRG-stimulated cell proliferation (CTG assay), OVCAR-8 cells, 1.25 uM seribantumab, 10 nM HRG: 41%
B1: Seribantumab (antibody, INN chains, looked up, V domains shown)
VH: EVQLLESGGGLVQPGGSLRLSCAASGFTFSHYVMAWVRQAPGKGLEWVSSISSSGGWTLYADSVKGRFTISRDNSKNTLYLQMNSLRAEDTAVYYCTRGLKMATIFDYWGQGTLVTVSS
VL: QSALTQPASVSGSPGQSITISCTGTSSDVGSYNVVSWYQQHPGKAPKLIIYEVSQRPSGVSNRFSGSKSGNTASLTISGLQTEDEADYYCCSYAGSSIFVIFGGGTKVTVLG
